# In PMC5620043, “A general mechanism of ribosome dimerization revealed by single-particle cryo-electron microscopy” (Nature Communications, 2017):
# B1: HPF^long from L. lactis with N-terminal Strep-tag (natural protein, UniProt A2RIX0 1-185, looked up)
# chain: MIKFNIRGENVEVTDAIRAYVEDKIGKLDKYFNDGHEVTAYVNLKVYTEKRAKVEVTLPAKNVTLRAEDTSQDMYSSIDFVEEKLERQIRKYKTRMNRKPRNAVPTGQVFGDEFAPLDTTDEVAEDHVDIVRTKHVALKPMDAEEAVLQMDMLGHDFYVFTDADSNGTHVVYRRTDGRYGLIETE
# notes: HPF^long of Lactococcus lactis, 185 residues, calculated monomer mass 21.3 kDa; also called purified HPF^long; source: overexpressed in L. lactis NZ9000, purified on a Strep-tactin Sepharose column
# Biological target: the molecule itself
# Experiment: SEC-MALS; SEC-MALLS, Superdex 200 10/300, 100 mM Tris-HCl, 150 mM NaCl, pH 8.0; protein concentrated to about 4 mg/ml; three batches, two with 10% glycerol
protein,measurement,value
B1,stoichiometry N,2
